The target in assay [1] is gH/gL/gO trimer of HCMV TB40-BAC4 (human cytomegalovirus, strain TB40/E (TB40-BAC4)).
Assay [2] has the same target. This is another data set of the same source.
The target is the same in assay [3]. The source holds these as a separate data set.
For assay [4], the target named is PDGF-BB (UniProt P01127).
For assay [5], the target named is PDGF-BB (UniProt P01127). This is another data set of the same source.

Chain of PDGF-BB (P01127 82-190): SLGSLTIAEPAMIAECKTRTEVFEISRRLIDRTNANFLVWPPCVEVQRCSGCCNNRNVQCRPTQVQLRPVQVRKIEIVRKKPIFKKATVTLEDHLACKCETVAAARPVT
Chain of PDGFRα-Fc delQ294-E298 (P16234 other isoform, or with tags, fused parts or gaps, stated change not applied): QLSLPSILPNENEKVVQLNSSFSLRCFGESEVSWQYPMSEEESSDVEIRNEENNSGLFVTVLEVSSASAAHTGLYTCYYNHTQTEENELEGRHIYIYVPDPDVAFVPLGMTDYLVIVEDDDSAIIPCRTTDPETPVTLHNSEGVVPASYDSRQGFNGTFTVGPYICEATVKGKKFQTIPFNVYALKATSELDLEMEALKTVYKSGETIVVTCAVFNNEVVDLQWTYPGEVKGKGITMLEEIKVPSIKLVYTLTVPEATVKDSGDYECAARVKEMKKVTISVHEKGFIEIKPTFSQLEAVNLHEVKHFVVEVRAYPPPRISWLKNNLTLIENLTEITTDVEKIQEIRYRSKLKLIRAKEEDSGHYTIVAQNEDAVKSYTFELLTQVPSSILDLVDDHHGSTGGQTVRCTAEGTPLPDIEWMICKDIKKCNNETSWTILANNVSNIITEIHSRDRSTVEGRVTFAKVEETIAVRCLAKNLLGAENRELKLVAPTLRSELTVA
Chain of PDGFRα-Fc delM133-I139 (P16234 other isoform, or with tags, fused parts or gaps, stated change not applied): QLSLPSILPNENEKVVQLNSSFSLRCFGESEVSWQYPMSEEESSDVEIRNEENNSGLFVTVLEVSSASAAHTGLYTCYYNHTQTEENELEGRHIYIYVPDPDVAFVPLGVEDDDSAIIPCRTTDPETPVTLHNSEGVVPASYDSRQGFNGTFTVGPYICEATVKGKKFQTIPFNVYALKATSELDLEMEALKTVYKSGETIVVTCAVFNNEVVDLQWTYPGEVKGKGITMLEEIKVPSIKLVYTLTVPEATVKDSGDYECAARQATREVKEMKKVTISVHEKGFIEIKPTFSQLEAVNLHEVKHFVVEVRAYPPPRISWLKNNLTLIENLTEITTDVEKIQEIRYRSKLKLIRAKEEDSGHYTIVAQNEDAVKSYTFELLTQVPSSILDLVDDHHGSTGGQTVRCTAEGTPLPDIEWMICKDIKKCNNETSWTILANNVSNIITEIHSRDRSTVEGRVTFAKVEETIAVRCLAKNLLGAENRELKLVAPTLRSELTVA
Chain of PDGFRα-Fc delN204-Y206 (P16234 other isoform, or with tags, fused parts or gaps, stated change not applied): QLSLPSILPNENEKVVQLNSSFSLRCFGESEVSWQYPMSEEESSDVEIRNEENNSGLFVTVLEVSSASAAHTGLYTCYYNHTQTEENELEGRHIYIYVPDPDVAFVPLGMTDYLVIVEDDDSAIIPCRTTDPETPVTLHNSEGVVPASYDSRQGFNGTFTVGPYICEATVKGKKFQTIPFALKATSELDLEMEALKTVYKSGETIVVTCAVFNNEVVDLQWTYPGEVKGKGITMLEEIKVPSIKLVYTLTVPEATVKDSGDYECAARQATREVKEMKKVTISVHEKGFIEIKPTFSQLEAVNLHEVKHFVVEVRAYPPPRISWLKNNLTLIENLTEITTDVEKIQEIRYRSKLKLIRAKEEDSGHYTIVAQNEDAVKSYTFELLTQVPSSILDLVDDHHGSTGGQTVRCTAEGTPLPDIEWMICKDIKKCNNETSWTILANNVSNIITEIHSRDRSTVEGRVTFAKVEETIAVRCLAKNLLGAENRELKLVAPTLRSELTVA

For “PDGFRα-Fc delN204-Y206 (from UniProt P16234-1 24-528) (Fc fusion)”, the inhibition of HCMV TB40-BAC4-IE-GLuc infection of fibroblasts (Gaussia luciferase read-out), 4,000 to 1 ng/ml; EC50 against wild type (fold higher EC50 than wild type) in assay [1] stood at 10.

For “PDGFRα-Fc I139V (from UniProt P16234-1 24-528) (Fc fusion)”, the HCMV inhibition EC50 (TB40-BAC4-IE-GLuc, fibroblasts, immediate-early antigen staining) in assay [2] turned out to be 9.5 ng/mL.

Regarding “PDGFRα-Fc delM133-I139 (from UniProt P16234-1 24-528) (Fc fusion)”, the inhibition of HCMV TB40-BAC4-IE-GLuc infection of fibroblasts (Gaussia luciferase read-out), 4,000 to 1 ng/ml; EC50 against wild type (fold higher EC50 than wild type) in assay [1] is 10.

“PDGFRα-Fc I139L (from UniProt P16234-1 24-528) (Fc fusion)” had an HCMV inhibition EC50 (TB40-BAC4-IE-GLuc, fibroblasts, immediate-early antigen staining) in assay [2] of 6.6 ng/mL.

For “PDGFRα-Fc delQ294-E298 (from UniProt P16234-1 24-528) (Fc fusion)”, the inhibition of HCMV TB40-BAC4-IE-GLuc infection of fibroblasts (Gaussia luciferase read-out), 4,000 to 1 ng/ml; EC50 against wild type (fold higher EC50 than wild type) in assay [1] was 10.

For the substance “PDGFRα-Fc Q294A (from UniProt P16234-1 24-528) (Fc fusion)”, the inhibition of HCMV TB40-BAC4-IE-GLuc infection of fibroblasts (Gaussia luciferase read-out), against wild type (fold increase of the inhibitory effect) in assay [3] turned out to be 3.

“PDGFRα-Fc Y206A (from UniProt P16234-1 24-528) (Fc fusion)”: the reduction of Akt phosphorylation induced by 50 ng/ml PDGF-BB in fibroblasts, phospho-Akt immunoblot, 4,000 ng/ml PDGFRα-Fc with PDGF-BB [4] came out at 60%. The inhibition of HCMV TB40-BAC4-IE-GLuc infection of fibroblasts (Gaussia luciferase read-out), against wild type (fold decrease of the efficiency) in assay [3] came to 4.

For “PDGFRα-Fc T296A (from UniProt P16234-1 24-528) (Fc fusion)”, the inhibition of HCMV TB40-BAC4-IE-GLuc infection of fibroblasts (Gaussia luciferase read-out), against wild type (fold increase of the inhibitory effect) in assay [3] turned out to be 3.

In the case of “PDGFRα-Fc E298A (from UniProt P16234-1 24-528) (Fc fusion)”, the inhibition of HCMV TB40-BAC4-IE-GLuc infection of fibroblasts (Gaussia luciferase read-out), against wild type (fold increase of the inhibitory effect) in assay [3] turned out to be 3.

“PDGFRα-Fc Y206F (from UniProt P16234-1 24-528) (Fc fusion)” registered an HCMV inhibition EC50 (TB40-BAC4-IE-GLuc, fibroblasts, immediate-early antigen staining) in assay [2] of 5.9 ng/mL.

Substance “PDGFRα-Fc I139A (from UniProt P16234-1 24-528) (Fc fusion)” registered a reduction of Akt phosphorylation induced by 50 ng/ml PDGF-BB in fibroblasts, phospho-Akt immunoblot, 4,000 ng/ml PDGFRα-Fc with PDGF-BB [4] of 20%. Also, the inhibition of HCMV TB40-BAC4-IE-GLuc infection of fibroblasts (Gaussia luciferase read-out), against wild type (fold decrease of the efficiency) in assay [3] was determined as 4. In the assay with PDGF-BB [5], this substance came in with a reduction of p-Akt signal induced by 6 ng/ml PDGF-BB in fibroblasts, quantitative immunoblot, 4000 ng/ml PDGFRα-Fc of 80%.

These data come from PMC8031885.
